# In the supplement of paper PMC11865577:
# Key:
# Assay in all cases: pull-down binding Z-score (relative to library population); higher = stronger binding
# [1] = test system: G-clamp-N3 (biotin conjugate); conditions: RNA library: Library-1 (pre-miRNA loops + repeats)
# Procedure, shortened: (§1)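 Cy5- or Cy3-end-labelled RNA library (1 μg) was heat-folded in phosphate/NaCl/KCl buffer and incubated 60 min at 25 °C with streptavidin beads carrying 100 pmol biotin-conjugated small molecule. After three washes, bound RNA was eluted in hot SDS and hybridised 20 h at 55.5 °C to a DNA barcode microarray. Binding was scored by subtracting a beads-only control, averaging barcoded replicate probes after dropping highest and lowest, and converting to a Z-score against library mean and standard deviation.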
# [2] = test system: TO-3-N3 (biotin conjugate); conditions: RNA library: Library-2
# Procedure, shortened: as §1
# [3] = test system: TO-3-N3-2 (biotin conjugate); conditions: RNA library: Library-2
# Procedure, shortened: as §1
# [4] = test system: TO-N3 (biotin conjugate); conditions: RNA library: Library-2
# Procedure, shortened: as §1
# [5] = test system: TO-N3-2 (biotin conjugate); conditions: RNA library: Library-2
# Procedure, shortened: as §1
Sequence,pull-down binding Z-score [1],pull-down binding Z-score [2],pull-down binding Z-score [3],pull-down binding Z-score [4],pull-down binding Z-score [5]
GGAUAAGAAUCAGUCAC [hsa-mir-217],-0.462,-0.334,0.259,-0.415,-0.147
GGAUAGAAACUAUUAUUCUAUUC [hsa-mir-664a],-0.818,-0.357,-0.303,-0.784,-1.38
GGAUCAUGUUUGCCCCCGUGGACAGCUCUCUGGUGUGCUCCUCCUGCCAUCCUGCCCACCCCUGCAUAAUGCUGCUUC [hsa-mir-6809],-1.25,0.306,0.384,1.02,1.5
GGAUCCCAGAUCAAACCAGGCCC [hsa-mir-331],-0.859,-0.36,-0.114,-0.177,0.63
GGAUGAAAGUCAAAGAAUCC [hsa-mir-1262],-0.564,1.25,0.0666,1.17,0.0488
GGAUGGCCAGGGAAGUAUGCCGGGCCUUGGCAUUUC [hsa-mir-7159],2.04,0.218,0.175,0.814,1.9
GGAUGGGAGACCUGACCCAUCC [hsa-mir-5195],0.74,-0.0606,-0.208,-0.0467,-0.332
GGAUGUGUUGACCCCUGAAGUGGUUCUGAUGACCUUUCC [hsa-mir-6883],-1.11,0.00863,-0.03,0.387,0.938
GGAUUUGCUUCCUGUCACAAAUCA [hsa-mir-23a],-1.51,0.391,-0.241,0.271,-0.188
GGCACCUACGAUACCCAGUGCC [hsa-mir-3116-2],-0.645,-0.264,-0.0787,-0.383,0.165
GGCACUGGGUAUCGUAGGUGCC [hsa-mir-3116-1],2.06,0.661,0.127,0.377,0.718
GGCAGAAAUGUC [hsa-mir-8053],0.69,-0.653,-0.375,-1.13,-1.13
GGCAGGAGGCAGUGAAGUAACUUGC [hsa-mir-3934],-0.848,1,0.583,1.43,1.2
GGCAGGGGGAGCUGCAGGGCUAUGGGAGGGGCCCCAGCGUCUGA [hsa-mir-1233-2_1233-1],2.96,3.54,2.98,3.66,3.08
GGCAGGGUCCUCCAGCUCAUUCCUCCUGCC [hsa-mir-6829],0.723,0.564,0.56,0.491,0.71
GGCAGGUGCCUCCGUGUUGCCGAACCCUCCU [hsa-mir-6761],-0.447,0.358,0.116,0.998,1.74
GGCAGGUGUGGUUGGAGGAAGCAGCCUGAACCUGCC [hsa-mir-6778],0.663,-0.114,0.333,0.227,0.361
GGCAGUGGUUCUAAAAGCUGUC [hsa-mir-3618],0.498,0.861,-0.198,0.603,0.117
GGCAUCAGAGGACAGCCGCCUGGUGCC [hsa-mir-4641],0.915,0.287,-0.0706,0.327,0.46

Sequence,pull-down binding Z-score [1],pull-down binding Z-score [2],pull-down binding Z-score [3],pull-down binding Z-score [4],pull-down binding Z-score [5]
GGCAUCCCCAUUGCU [hsa-mir-4304],-0.987,0.527,-0.113,0.343,0.191
GGCAUCUAGCACAGGCGGUAGAUGCU [hsa-mir-4486],0.983,-0.546,-0.34,-0.481,-0.132
GGCAUCUAGGCUGUGCACAGUGACGCC [hsa-mir-4749],0.317,-0.604,-0.421,-0.376,0.336
GGCCACCCAGGGAGUAAGUAGCC [hsa-mir-4480],0.515,2.34,0.908,2.09,1.42
GGCCAUCUGCUAUUCGUCCACCAACCUGACUUGAUCC [hsa-mir-7111],0.0541,-0.0213,0.0293,0.256,0.477
GGCCAUCUGGCC [hsa-mir-4252],0.63,-0.403,-0.435,-0.667,-1.01
GGCCCCAGGAAGAAGGGCCUGGUGGAGCC [hsa-mir-6743],2.82,0.235,0.267,0.577,1.51
GGCCGGUCAGGCA [hsa-mir-4689],1.09,0.391,-0.106,0.576,0.682
GGCCGUUUGAGAUGUCC [hsa-mir-3674],-0.962,-0.181,-0.132,-0.259,0.0919
GGCCUGGGAUUCCUGCCUUCUAGGUC [hsa-mir-8078],-0.278,0.742,-0.0252,0.707,0.307
GGCGACUGGUGUCUAAUUUGUUUGUC [hsa-mir-4429],0.682,-0.313,-0.265,-0.37,-0.308
GGCGCACAGCAGACCCUGCAAUCAUGCC [hsa-mir-3164],0.000458,0.966,0.119,1.03,0.621
GGCGCGCGAGGCUCCAGGCUCC [hsa-mir-3197],2.56,0.322,0.248,0.81,1.92
GGCGCUGGGACCCCACUAGGGUGGCGCC [hsa-mir-4488],1.6,1.33,0.254,1.25,0.687
GGCGCUGUCUUGAGACAUUCGCGCAGUGCA [hsa-mir-3177],-0.296,-0.111,-0.209,0.646,2.23
GGCGCUUCUCCUUCUGAACAGAGCGCU [hsa-mir-1251],-0.609,-0.462,-0.182,-0.423,-0.171
GGCGGAGGCAGGCGUGACCGUUUGCC [hsa-mir-4632],1.09,0.432,0.38,1.11,1.56
GGCGGCUCGGAGUACCUCUGCCGCC [hsa-mir-6869],0.238,0.86,-0.0436,0.666,-0.0185
